Tests used:
strain RL602 = experiment: Growth with plasmid-derived wild type or mutant β′ as sole source of β′ subunit; format: cell-based; conditions: 42° C., mutant β′ as sole source of β′
Procedure: Plasmids pTA577, 600-609 (0.1 μg) were transformed into strain RL602 (Weilbaecher et al., 1994; Ridley et al., 1982). After heat shock and incubation on ice, 300 μl of LB was added to the 50 μl cell mixture. Ten μl of the transformation reaction was spotted onto LB plates plus ampicillin (100 μg/ml) and incubated at 30° C. Another 10 μl was spotted onto plates and incubated at 42° C. The plates were incubated between 24-48 hours and assessed for growth.
To assess the importance of the σ^70 binding site in vivo, the ability of mutant β′ subunits to function as the cell's sole source of β′ was assessed. Plasmids containing either mutant or wild type, full length β′ were transformed into strain RL602 (Weilbaecher et al., 1994; Ridley et al., 1982). The chromosomal rpoC gene of RL602 has an amber mutation that prevents functional β′ from being produced in the absence of a suppressor tRNA. RL602 also has a chromosomal, temperature-sensitive, amber suppressor. At the permissive temperature (30° C.) the amber suppressor is active and allows chromosomal β′ to be produced and the cell can grow. The amber suppressor is not active at the non-permissive temperature (42° C.). Therefore, at 42° C., chromosomal β′ is not made and the cell cannot grow without another source of β′. If the plasmid-derived β′ can complement the loss of β′, the cells will grow and form colonies on plates at the non-permissive temperature. If the mutant β′ cannot complement, there will be no growth on the plates at this temperature.

σ^70 [1] = biological target: T1, σ^70 (Escherichia coli, UniProt P00579); conditions: for Eσ^70 formation / binding σ^70: log and stationary phase samples
Procedure: (§1) One L flasks containing 200 ml of LB with ampicillin (100 μg/ml) and IPTG (0.15 mM) were inoculated with 200 μl from an overnight culture of cells containing plasmids pTA561, 577, 600-609. The cultures were grown at 37° C. with shaking until the A600=0.4 for log phase assays and 2 hours longer (A600 about 2.0) for the early stationary phase assays. The cells were harvested by centrifugation at 6,000 rpm for 10 minutes and stored at −20° C. until use. The cell pellets were resuspended in 5 ml TE (10 mM Tris-HCl, pH 7.9 and 0.1 mM EDTA) plus 0.15 M NaCl and lysozyme (0.1 mg/ml) then incubated on ice for 15 minutes. The cells were sonicated 2×30 seconds and centrifuged for 25 minutes at 27,000×g to pellet the insoluble material. The supernatant was loaded onto a 1.5 ml immunoaffinity column containing the polyol-responsive, anti-β′ monoclonal antibody (MAb), NT73 (Thompson et al., 1992). The column was washed with 15 ml TE plus 0.15 M NaCl followed by a second wash with 10 ml TE plus 0.5 M NaCl. The protein was eluted from the column with 4 ml TE plus 0.7 M NaCl and 30% propylene glycol. The eluted sample (4 ml) was diluted with 6 ml buffer B (20 mM Tris-HCl, pH 7.9, 500 mM NaCl, 5 mM imidazole, 0.1% (v/v) Tween 20, and 10% (v/v) glycerol) and loaded (2×) onto 500 μl of Ni^2+-NTA resin. The resin was washed (2×) with 5 ml of buffer B and eluted with 0.5 ml buffer B plus 0.25 M imidazole. Samples from the elution fractions were assayed by Western blot as described above using Mabs to each subunit or σ factor. The secondary antibodies were horseradish peroxidase-labeled goat antimouse IgG antibodies and the signal was generated using the ECL+ substrate system (Amersham) and detected using the STORM FluoroImager and quantitated with IMAGEQUANT software (Molecular Dynamics).
(§2) To evaluate the potential assembly defects caused by the various mutations, His6-tagged, mutant β′ subunits were expressed in cells that were also expressing wild type, chromosomal β′ proteins. A Ni^2+-NTA column was used to purify the mutant β′ subunits together with associated cell proteins. An immunoaffinity column was used to clean-up the samples in order to reduce any non-specific binding to the Ni^2+-NTA column.
Target sequence in this assay (P00579 whole entry): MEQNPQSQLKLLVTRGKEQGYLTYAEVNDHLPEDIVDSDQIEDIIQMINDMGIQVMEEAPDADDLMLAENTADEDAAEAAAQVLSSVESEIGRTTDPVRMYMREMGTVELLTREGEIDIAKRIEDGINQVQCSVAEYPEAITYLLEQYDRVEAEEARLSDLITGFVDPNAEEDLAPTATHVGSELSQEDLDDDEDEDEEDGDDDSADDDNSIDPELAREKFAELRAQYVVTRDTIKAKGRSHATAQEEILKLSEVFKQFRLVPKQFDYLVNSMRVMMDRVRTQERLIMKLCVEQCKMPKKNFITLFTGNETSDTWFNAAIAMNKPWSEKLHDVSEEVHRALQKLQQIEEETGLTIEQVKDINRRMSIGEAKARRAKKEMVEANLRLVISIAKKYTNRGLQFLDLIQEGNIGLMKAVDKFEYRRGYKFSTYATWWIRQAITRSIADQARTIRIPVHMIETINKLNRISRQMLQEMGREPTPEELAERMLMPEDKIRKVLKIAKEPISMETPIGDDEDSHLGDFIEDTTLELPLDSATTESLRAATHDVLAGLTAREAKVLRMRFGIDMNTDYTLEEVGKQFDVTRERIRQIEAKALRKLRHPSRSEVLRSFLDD
Target sequence in this assay (P0A8T7 whole entry, further chain): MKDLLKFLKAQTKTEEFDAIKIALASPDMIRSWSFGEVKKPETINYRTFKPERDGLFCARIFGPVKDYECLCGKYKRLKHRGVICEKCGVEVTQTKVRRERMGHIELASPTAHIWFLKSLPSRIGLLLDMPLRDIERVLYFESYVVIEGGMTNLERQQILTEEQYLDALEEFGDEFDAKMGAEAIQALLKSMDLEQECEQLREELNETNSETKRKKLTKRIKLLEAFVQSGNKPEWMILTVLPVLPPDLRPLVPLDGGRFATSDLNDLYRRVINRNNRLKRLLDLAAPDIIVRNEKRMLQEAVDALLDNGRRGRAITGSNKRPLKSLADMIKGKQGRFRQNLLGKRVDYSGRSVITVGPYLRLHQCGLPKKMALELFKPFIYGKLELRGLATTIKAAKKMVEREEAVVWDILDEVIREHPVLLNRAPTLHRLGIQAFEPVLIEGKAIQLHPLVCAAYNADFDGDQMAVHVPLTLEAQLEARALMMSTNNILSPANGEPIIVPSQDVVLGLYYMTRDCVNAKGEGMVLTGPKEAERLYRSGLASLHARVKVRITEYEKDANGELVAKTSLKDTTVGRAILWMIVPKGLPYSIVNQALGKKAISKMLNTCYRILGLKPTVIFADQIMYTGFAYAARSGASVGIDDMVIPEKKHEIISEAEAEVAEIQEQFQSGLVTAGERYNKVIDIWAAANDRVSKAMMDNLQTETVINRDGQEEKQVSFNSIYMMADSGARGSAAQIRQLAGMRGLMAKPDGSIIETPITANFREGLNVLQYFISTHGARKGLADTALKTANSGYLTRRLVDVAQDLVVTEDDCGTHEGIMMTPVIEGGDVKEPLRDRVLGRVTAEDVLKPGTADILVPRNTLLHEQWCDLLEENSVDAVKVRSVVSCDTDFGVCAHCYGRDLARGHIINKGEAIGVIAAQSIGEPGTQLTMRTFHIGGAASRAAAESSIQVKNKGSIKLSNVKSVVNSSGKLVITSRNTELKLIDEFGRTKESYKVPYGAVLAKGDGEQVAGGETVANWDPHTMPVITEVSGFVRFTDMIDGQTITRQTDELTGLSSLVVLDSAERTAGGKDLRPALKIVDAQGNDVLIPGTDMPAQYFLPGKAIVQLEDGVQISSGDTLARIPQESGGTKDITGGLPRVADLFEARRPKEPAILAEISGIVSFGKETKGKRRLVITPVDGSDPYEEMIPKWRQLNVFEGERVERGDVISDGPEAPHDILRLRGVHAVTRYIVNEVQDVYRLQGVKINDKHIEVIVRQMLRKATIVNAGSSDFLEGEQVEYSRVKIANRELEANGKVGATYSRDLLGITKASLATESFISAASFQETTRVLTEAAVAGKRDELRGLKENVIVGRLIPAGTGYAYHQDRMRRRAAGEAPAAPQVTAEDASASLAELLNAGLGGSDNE
Target sequence in this assay (P0A8V2 whole entry, further chain): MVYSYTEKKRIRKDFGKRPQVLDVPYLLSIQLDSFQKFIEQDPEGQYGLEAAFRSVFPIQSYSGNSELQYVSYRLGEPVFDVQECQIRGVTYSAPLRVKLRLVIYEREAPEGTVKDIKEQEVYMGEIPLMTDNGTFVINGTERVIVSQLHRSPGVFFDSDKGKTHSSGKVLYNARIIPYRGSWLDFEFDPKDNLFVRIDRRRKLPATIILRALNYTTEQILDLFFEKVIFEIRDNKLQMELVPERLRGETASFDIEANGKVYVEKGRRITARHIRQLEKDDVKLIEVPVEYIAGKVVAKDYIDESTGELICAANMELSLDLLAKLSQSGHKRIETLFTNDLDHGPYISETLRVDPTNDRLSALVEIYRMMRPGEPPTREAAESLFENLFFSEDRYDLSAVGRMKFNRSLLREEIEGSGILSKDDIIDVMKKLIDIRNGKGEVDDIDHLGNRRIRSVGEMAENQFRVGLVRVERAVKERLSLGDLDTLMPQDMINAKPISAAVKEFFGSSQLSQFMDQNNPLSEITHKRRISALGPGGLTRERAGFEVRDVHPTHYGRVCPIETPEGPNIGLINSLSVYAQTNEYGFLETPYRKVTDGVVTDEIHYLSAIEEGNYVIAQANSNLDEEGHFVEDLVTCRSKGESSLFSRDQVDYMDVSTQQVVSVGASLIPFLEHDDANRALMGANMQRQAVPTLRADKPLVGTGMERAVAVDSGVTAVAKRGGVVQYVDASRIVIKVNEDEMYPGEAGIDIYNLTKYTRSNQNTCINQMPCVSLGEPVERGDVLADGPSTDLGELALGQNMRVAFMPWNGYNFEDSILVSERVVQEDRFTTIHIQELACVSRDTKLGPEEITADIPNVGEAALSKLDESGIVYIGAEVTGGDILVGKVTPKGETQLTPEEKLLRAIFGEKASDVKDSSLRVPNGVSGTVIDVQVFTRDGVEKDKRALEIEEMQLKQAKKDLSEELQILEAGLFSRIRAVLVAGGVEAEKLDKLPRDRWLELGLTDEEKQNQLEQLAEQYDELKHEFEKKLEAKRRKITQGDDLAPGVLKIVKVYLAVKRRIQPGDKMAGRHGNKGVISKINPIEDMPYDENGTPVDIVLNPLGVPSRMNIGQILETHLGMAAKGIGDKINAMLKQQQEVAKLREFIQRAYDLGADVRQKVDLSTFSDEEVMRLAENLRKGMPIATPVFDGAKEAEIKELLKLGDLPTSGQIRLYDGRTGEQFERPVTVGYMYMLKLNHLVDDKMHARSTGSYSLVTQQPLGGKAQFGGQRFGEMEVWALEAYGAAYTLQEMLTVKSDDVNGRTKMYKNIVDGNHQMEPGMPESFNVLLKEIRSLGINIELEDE
Target sequence in this assay (P0A7Z4 whole entry, further chain): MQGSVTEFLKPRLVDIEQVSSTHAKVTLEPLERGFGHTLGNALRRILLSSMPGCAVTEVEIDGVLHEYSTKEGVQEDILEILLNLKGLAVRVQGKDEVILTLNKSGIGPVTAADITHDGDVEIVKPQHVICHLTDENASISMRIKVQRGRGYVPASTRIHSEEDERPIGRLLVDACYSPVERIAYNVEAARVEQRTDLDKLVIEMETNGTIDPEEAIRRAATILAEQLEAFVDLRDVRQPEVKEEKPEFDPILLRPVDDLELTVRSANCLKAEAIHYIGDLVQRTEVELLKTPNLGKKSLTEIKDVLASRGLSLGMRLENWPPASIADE

σ^70 [2] = biological target: T1, σ^70; conditions: for ability to bind σ^70 compared to wt β′1-319 fragment: normalized to amount of fragment
Procedure: Cells containing truncated β′ expression plasmids pTA610-620 were grown to an A600 of 0.6-0.8 and induced with 1 mM IPTG. The cells were grown for an additional 30 minutes. A 200 μl sample was removed and sonicated 3×30 seconds. Twenty μl of glycerol and 20 μl of SDS-sample buffer were added and heated for 2 minutes at 95° C. then stored at −20° C. until use. The lysates were separated by SDS-PAGE. The proteins were electrophoretically transferred onto 0.05 μm nitrocellulose.
The blot was dried and the signal was visualized with a PhosphorImager and quantitated with IMAGEQUANT software (Molecular Dynamics).
This method was initially employed to detect the functionality of the β′ mutants. The mutations were cloned into a gene fragment coding for amino acid residues 1-319 of the β′ subunit. […] Samples were analyzed for binding σ^70 by far Western analysis The amount of σ^70 probe bound by each β′1-319 mutant fragment was compared to the amount bound by wt β′1-319 fragment. Each signal was normalized to the amount of β′1-319 contained in the supernatant as determined by Western blotting.
Target sequence in this assay (P00579 whole entry): as the sequence (P00579 whole entry) above

σ^32 = biological target: T2, σ^32 (Escherichia coli, UniProt P0AGB3)
T2 sequence (P0AGB3 whole entry, looked up): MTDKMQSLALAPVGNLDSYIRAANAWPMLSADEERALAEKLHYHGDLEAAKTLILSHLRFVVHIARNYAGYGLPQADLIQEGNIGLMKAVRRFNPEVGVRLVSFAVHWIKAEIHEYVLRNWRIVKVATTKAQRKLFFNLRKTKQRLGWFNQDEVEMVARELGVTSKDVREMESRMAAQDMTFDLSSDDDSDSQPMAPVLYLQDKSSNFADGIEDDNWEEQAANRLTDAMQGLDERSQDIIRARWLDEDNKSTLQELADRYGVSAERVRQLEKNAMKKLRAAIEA
Procedure: as §1, §2
(§3) All of the sample eluates were also assayed for the presence of any minor σ species.

labeled σ^70 and β′ = labeled σ^70 and β′ (Escherichia coli, UniProt P00579+P0A8T7, C132S/C291S/C295S/S442C); conditions: 10 nM labeled σ^70, 50 nM labeled β′
Procedure: The assay was performed in NTG-buffer (200 μL total volume) plus 2.5% DMSO (when insoluble additives were used) with 10 nM σ^70* (labeled protein) and 50 nM β′* (labeled protein). Labeled σ^70 was added first to the assay, then the potential inhibitor and denatured labeled β′ was added last, mixing the solution well after the addition of each component. The mixture was incubated for 5 minutes at RT and measured in a 96-well plate (Costar 3650) with a multi-plate reader (Wallac, VictorV^2 1420). For this time-resolved fluorescence measurement, the manufacturer's protocol (LANCE high count 615/665) was used (excitation with 1000 flashes, at 325 nm, measurement was delayed by 100 μs and acquired for 50 μs at 615 and 665 nm). […] The IC5-emission is corrected for the very small amount of signal from the Eu-emission band (by cross talk measurement of a standard) and then divided by the intensity of the Eu signal. […] The nature of this method allows the differentiation of the loss of signal due to real inhibition from simple absorption caused by the inner filter effect from the substance.

σ^F = σ^F (Escherichia coli, UniProt P0AEM6); conditions: stationary phase samples
Procedure: as §1, §2, §3

Sequence of labeled σ^70 and β′ (P00579 whole entry C132S/C291S/C295S/S442C): as the sequence (P00579 whole entry) above, with C132S, C291S, C295S, S442C counted along it
Sequence of labeled σ^70 and β′ (P0A8T7 100-309): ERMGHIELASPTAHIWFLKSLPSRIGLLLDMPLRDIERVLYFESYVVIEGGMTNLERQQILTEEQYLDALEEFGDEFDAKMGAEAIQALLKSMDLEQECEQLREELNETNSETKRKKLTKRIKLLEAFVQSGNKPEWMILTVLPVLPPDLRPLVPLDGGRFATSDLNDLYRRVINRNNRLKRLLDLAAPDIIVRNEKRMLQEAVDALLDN

Compound | growth at the non-permissive temperature (strain RL602) | ability to bind σ^70 compared to wt β′1-319 fragment (σ^70 [2]) | Eσ^70 formation / binding σ^70 (σ^70 [1]) | also measured
R297S (FATSDLNDLYRRVINRNNRLKRLLDLAAPDIIVRNEKSMLQEAVDALLDN) | could support growth | greatly reduced |  | Eσ^70 formation (σ^70 [1]; log phase samples): reduced; binding of the minor sigmas (σ^32; minor σ's at detectable levels: σ^32 and σ^F): increased binding
A302D (FATSDLNDLYRRVINRNNRLKRLLDLAAPDIIVRNEKRMLQEDVDALLDN) | could not support growth | greatly reduced | defects in binding σ^70 | 
K280E (FATSDLNDLYRRVINRNNRLERLLDLAAPDIIVRNEKRMLQEAVDALLDN) | no detectable effects on growth | no effects on binding | no detectable affect | 
C[S+](C)[O-] [DMSO] |  |  |  | effect on LRET signal / competition (labeled σ^70 and β′): no significant effect
Y269A (FATSDLNDLARRVINRNNRLKRLLDLAAPDIIVRNEKRMLQEAVDALLDN) | no detectable effects on growth | no effects on binding | no detectable affect | 
Q300E (FATSDLNDLYRRVINRNNRLKRLLDLAAPDIIVRNEKRMLEEAVDALLDN) | no detectable effects on growth | binding more σ^70 than wild type |  | increase in relative binding (σ^70 [2]; versus wild type β′1-319): greater than 7 fold; σ^F levels (σ^F): greatly reduced; amount of σ^32 (σ^32; log phase samples): decreased amount; σ^32 levels (σ^32; stationary phase samples): greatly reduced
N309D (FATSDLNDLYRRVINRNNRLKRLLDLAAPDIIVRNEKRMLQEAVDALLDD) | no detectable effects on growth | binding more σ^70 than wild type | no detectable affect | 
R275Q (FATSDLNDLYRRVINQNNRLKRLLDLAAPDIIVRNEKRMLQEAVDALLDN) | could not support growth | greatly reduced | defects in binding σ^70 | 
E295K (FATSDLNDLYRRVINRNNRLKRLLDLAAPDIIVRNKKRMLQEAVDALLDN) | could not support growth | greatly reduced | defects in binding σ^70 | 
CCO [ethanol] |  |  |  | effect on LRET signal / competition (labeled σ^70 and β′): significant effect
R293Q (FATSDLNDLYRRVINRNNRLKRLLDLAAPDIIVQNEKRMLQEAVDALLDN) | could support growth | greatly reduced | no detectable affect | 
N266D (FATSDLDDLYRRVINRNNRLKRLLDLAAPDIIVRNEKRMLQEAVDALLDN) | allowed some growth | no effects on binding | reduced | 
